The target in the test is human complement receptor 3 (CR3) on CR3-transfected CHO cells (CHO/CR3) (human) (UniProt P11215). The test is described as follows: flow cytometry on cells.
fH SCRs 16–20 fused to the Fc fragment of murine IgG2a (Fc fusion), sequence (P08603 19-1231): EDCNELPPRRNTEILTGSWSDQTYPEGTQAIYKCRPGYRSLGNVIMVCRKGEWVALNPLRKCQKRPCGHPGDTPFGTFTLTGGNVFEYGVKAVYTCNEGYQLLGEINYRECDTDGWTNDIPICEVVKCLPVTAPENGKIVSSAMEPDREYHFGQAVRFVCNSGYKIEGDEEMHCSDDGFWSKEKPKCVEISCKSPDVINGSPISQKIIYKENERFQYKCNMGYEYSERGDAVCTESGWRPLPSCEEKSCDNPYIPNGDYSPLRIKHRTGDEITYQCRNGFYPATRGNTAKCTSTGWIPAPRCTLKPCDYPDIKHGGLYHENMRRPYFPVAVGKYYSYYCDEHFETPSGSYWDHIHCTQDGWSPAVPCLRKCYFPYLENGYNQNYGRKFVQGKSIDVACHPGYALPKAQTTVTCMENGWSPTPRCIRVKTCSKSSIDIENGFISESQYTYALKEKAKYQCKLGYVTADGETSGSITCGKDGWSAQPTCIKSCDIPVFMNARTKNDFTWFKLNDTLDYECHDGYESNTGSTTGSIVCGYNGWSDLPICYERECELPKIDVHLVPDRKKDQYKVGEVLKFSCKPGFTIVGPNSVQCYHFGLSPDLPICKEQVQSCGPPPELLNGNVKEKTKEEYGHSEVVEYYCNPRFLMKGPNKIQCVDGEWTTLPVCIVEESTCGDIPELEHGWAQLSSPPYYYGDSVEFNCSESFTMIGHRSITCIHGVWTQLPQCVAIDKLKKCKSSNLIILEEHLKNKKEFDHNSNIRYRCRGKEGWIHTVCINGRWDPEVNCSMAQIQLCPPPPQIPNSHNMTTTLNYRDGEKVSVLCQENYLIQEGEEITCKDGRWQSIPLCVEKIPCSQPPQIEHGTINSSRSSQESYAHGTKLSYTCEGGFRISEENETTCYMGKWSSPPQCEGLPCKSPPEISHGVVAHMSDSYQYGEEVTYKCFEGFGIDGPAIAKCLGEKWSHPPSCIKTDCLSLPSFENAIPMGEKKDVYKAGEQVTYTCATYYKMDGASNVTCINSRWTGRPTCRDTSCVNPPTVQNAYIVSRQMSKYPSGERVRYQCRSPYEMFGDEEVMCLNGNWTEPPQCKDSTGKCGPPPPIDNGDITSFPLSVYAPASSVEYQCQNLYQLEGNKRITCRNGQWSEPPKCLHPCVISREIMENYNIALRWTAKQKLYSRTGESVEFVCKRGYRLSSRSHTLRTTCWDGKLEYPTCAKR
fH SCRs 18–20 fused to the Fc fragment of murine IgG2a (Fc fusion), sequence (P08603 19-1231): as above
fH SCRs 6–10 fused to the Fc fragment of murine IgG2a (Fc fusion), sequence (P08603 19-1231): as above
“fH SCRs 6–10 fused to the Fc fragment of murine IgG2a (Fc fusion)” gave a fold increase in fluorescence over control levels of 3 fold.

With “fH SCRs 16–20 fused to the Fc fragment of murine IgG2a (Fc fusion)”, the fold increase in fluorescence over control levels was found to be 15 fold.

For the substance “fH SCRs 18–20 fused to the Fc fragment of murine IgG2a (Fc fusion)”, the fold increase in fluorescence over control levels came out at 30 fold.

(Values after article PMC2944003.)
